Test results as given in patent publication US20240317859A1 (published 2024).
Read-outs that look alike come from different tables or passages of the source.

T1: FcγRIIB/C (CD32b/c) (FcγRIIB) (R&D Systems) (UniProt P31994 46-217)
T1 chain: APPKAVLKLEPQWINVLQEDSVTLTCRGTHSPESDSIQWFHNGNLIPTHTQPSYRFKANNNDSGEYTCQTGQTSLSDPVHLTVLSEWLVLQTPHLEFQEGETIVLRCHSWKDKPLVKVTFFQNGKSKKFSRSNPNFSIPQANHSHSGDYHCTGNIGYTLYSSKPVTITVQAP


Experiments:
Test in all cases: SPR
[1] = target: T1, FcγRIIB/C (CD32b/c) (FcγRIIB) (R&D …)
[2] = target: Fc gamma RIIIA/CD16a, CF (FcγRIIIA(V158)) (R&D Systems)
Sequence of Fc gamma RIIIA/CD16a, CF (FcγRIIIA(V158)) (R&D Systems) (chain, as listed by the source): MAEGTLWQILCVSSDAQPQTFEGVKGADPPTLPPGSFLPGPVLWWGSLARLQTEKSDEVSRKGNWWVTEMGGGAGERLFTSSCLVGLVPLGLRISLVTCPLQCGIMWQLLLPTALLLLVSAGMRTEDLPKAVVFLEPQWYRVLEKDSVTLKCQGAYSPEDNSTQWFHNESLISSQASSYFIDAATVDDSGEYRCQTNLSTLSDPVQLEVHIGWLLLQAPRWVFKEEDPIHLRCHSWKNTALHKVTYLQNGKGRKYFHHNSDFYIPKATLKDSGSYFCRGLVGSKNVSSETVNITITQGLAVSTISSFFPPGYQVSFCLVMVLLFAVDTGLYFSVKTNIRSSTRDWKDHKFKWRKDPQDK

[3] = target: T1, FcγRIIB/C (CD32b/c) (FcγRIIB) (R&D …)

Binder | Kd [1] [nM] | Kd [2] [nM] | Kd [3] [nM]
X2-K-DF HM242-C3 (antibody) chain 1: QVQLVQSGPEVKKPGASVKVVCKASGYTFTSYYIQWVKQRPGQGLEWIGWIYPGDGTTKYNEKFKGRVTMTIDKSTRTAYMELRSLRSDDTAVYYCASYYGSYFDYWGQGTLVTVSSASTKGPSVFPLAPSSKSTSGGTAALGCLVKDYFPEPVTVSWNSGALTSGVHTFPAVLQSSGLYSLSSVVTVPSSSLGTQTYICNVNHKPSNTKVDKKVEPKSCDKTHTCPPCPAPELLDGPSVFLFPPKPKDTLMISRTPEVTCVVVDVSDEDPEVKFNWYVDGVEVHNAKTKPREEQYNSTYRVVSVLTVLHQDWLNGKEYKCAVSNKALPAPIEKTISKAKGQPREPQVYTLPPSRDELTKNQVSLTCLVKGFYPSDIAVEWESNGQPENNYKTTPPVLDSDGSFFLYSKLTVDKSRWQQGNVFSCSVMHEALHNHYTQKSLSLSPGK chain 2: not shown | 1020 |  | 
X3-KS-DF HM242-D3 (antibody) chain 1: QVQLVQSGPEVKKPGASVKVVCKASGYTFTSYYIQWVRQVPGQGLEWMGWIYPGDGTTKYNEKFKGRVTMTIDTSTSTAYMELRSLRSDDTAVYYCASYYGSYFDYWGQGTLVTVSSASTKGPSVFPLAPSSKSTSGGTAALGCLVKDYFPEPVTVSWNSGALTSGVHTFPAVLQSSGLYSLSSVVTVPSSSLGTQTYICNVNHKPSNTKVDKKVEPKSCDKTHTCPPCPAPELLGGPDVFLFPPKPKDTLMISRTPEVTCVVVDVGDEDPEVKFNWYVDGVEVHNAKTKPREEQYNSTYRVVSVLTVLHQDWLNGKEYKCAVSNKALPAPIEKTISKAKGQPREPQVYTLPPSRDELTKNQVSLTCLVKGFYPSDIAVEWESNGQPENNYKTTPPVLDSDGSFFLYSKLTVDKSRWQQGNVFSCSVMHEALHNHYTQKSLSLSPGK chain 2: not shown | 2540 |  | 
X3-KL HM268-K8 (antibody) chain 1: QVQLVQSGPEVKKPGASVKVVCKTSGYTFTSYYIQWLKQRPGQGLEWIGWIYFGDASTKYNEKFKGRVTMTADKSTSTAYMELRSLRSDDTAVYYCASYYGSYFDYWGQGTTVTVSSASTKGPSVFPLAPSSKSTSGGTAALGCLVKDYFPEPVTVSWNSGALTSGVHTFPAVLQSSGLYSLSSVVTVPSSSLGTQTYICNVNHKPSNTKVDKKVEPKSCDKTHTCPPCPAPELLGGPDVFLFPPKPKDTLMISRTPEVTCVVVDVSDEDPEVKFNWYVDGVEVHNAKTKPREEQYNSTYRVVSVLTVLHQDWLNGKEYKCAVSNKAYPAPIEKTISKAKGQPREPQVYTLPPSRDELTKNQVSLTCLVKGFYPSDIAVEWESNGQPENNYKTTPPVLDSDGSFFLYSKLTVDKSRWQQGNVFSCSVMHEALHNHYTQKSLSLSPGK chain 2: DIQMTQSPSSLSASVGDRVTITCRASQDISNYLNWYQQKPDGTVKLLIYSTSRLHSGVPSRFSGSGSGTDYTLTISSLQPEDFATYYCQQGSTLPFTFGQGTKLEIKRTVAAPSVFIFPPSDEQLKSGTASVVCLLNNFYPREAKVQWKVDNALQSGNSQESVTEQDSKDSTYSLSSTLTLSKADYEKHKVYACEVTHQGLSSPVTKSFNRGEC | 736 | 1250 | 
X3-KS-DF HM268-K8 (antibody) chain 1: QVQLVQSGPEVKKPGASVKVVCKTSGYTFTSYYIQWLKQRPGQGLEWIGWIYFGDASTKYNEKFKGRVTMTADKSTSTAYMELRSLRSDDTAVYYCASYYGSYFDYWGQGTTVTVSSASTKGPSVFPLAPSSKSTSGGTAALGCLVKDYFPEPVTVSWNSGALTSGVHTFPAVLQSSGLYSLSSVVTVPSSSLGTQTYICNVNHKPSNTKVDKKVEPKSCDKTHTCPPCPAPELLGGPDVFLFPPKPKDTLMISRTPEVTCVVVDVGDEDPEVKFNWYVDGVEVHNAKTKPREEQYNSTYRVVSVLTVLHQDWLNGKEYKCAVSNKALPAPIEKTISKAKGQPREPQVYTLPPSRDELTKNQVSLTCLVKGFYPSDIAVEWESNGQPENNYKTTPPVLDSDGSFFLYSKLTVDKSRWQQGNVFSCSVMHEALHNHYTQKSLSLSPGK chain 2: DIQMTQSPSSLSASVGDRVTITCRASQDISNYLNWYQQKPDGTVKLLIYSTSRLHSGVPSRFSGSGSGTDYTLTISSLQPEDFATYYCQQGSTLPFTFGQGTKLEIKRTVAAPSVFIFPPSDEQLKSGTASVVCLLNNFYPREAKVQWKVDNALQSGNSQESVTEQDSKDSTYSLSSTLTLSKADYEKHKVYACEVTHQGLSSPVTKSFNRGEC | 2200 |  | 
X3-KS-DF HM242-C3 (antibody) chain 1: QVQLVQSGPEVKKPGASVKVVCKASGYTFTSYYIQWVKQRPGQGLEWIGWIYPGDGTTKYNEKFKGRVTMTIDKSTRTAYMELRSLRSDDTAVYYCASYYGSYFDYWGQGTLVTVSSASTKGPSVFPLAPSSKSTSGGTAALGCLVKDYFPEPVTVSWNSGALTSGVHTFPAVLQSSGLYSLSSVVTVPSSSLGTQTYICNVNHKPSNTKVDKKVEPKSCDKTHTCPPCPAPELLGGPDVFLFPPKPKDTLMISRTPEVTCVVVDVGDEDPEVKFNWYVDGVEVHNAKTKPREEQYNSTYRVVSVLTVLHQDWLNGKEYKCAVSNKALPAPIEKTISKAKGQPREPQVYTLPPSRDELTKNQVSLTCLVKGFYPSDIAVEWESNGQPENNYKTTPPVLDSDGSFFLYSKLTVDKSRWQQGNVFSCSVMHEALHNHYTQKSLSLSPGK chain 2: not shown | 1170 |  | 
X2-K HM268-K8 (antibody) chain 1: QVQLVQSGPEVKKPGASVKVVCKTSGYTFTSYYIQWLKQRPGQGLEWIGWIYFGDASTKYNEKFKGRVTMTADKSTSTAYMELRSLRSDDTAVYYCASYYGSYFDYWGQGTTVTVSSASTKGPSVFPLAPSSKSTSGGTAALGCLVKDYFPEPVTVSWNSGALTSGVHTFPAVLQSSGLYSLSSVVTVPSSSLGTQTYICNVNHKPSNTKVDKKVEPKSCDKTHTCPPCPAPELLDGPSVFLFPPKPKDTLMISRTPEVTCVVVDVSDEDPEVKFNWYVDGVEVHNAKTKPREEQYNSTYRVVSVLTVLHQDWLNGKEYKCAVSNKALPAPIEKTISKAKGQPREPQVYTLPPSRDELTKNQVSLTCLVKGFYPSDIAVEWESNGQPENNYKTTPPVLDSDGSFFLYSKLTVDKSRWQQGNVFSCSVMHEALHNHYTQKSLSLSPGK chain 2: DIQMTQSPSSLSASVGDRVTITCRASQDISNYLNWYQQKPDGTVKLLIYSTSRLHSGVPSRFSGSGSGTDYTLTISSLQPEDFATYYCQQGSTLPFTFGQGTKLEIKRTVAAPSVFIFPPSDEQLKSGTASVVCLLNNFYPREAKVQWKVDNALQSGNSQESVTEQDSKDSTYSLSSTLTLSKADYEKHKVYACEVTHQGLSSPVTKSFNRGEC |  | 7560 | 1650

Second part, the binder after the results:

Kd [1] [nM] | Kd [2] [nM] | Kd [3] [nM] | Binder
 | 236 | 1050 | X4-K HM268-K8 (antibody) chain 1: QVQLVQSGPEVKKPGASVKVVCKTSGYTFTSYYIQWLKQRPGQGLEWIGWIYFGDASTKYNEKFKGRVTMTADKSTSTAYMELRSLRSDDTAVYYCASYYGSYFDYWGQGTTVTVSSASTKGPSVFPLAPSSKSTSGGTAALGCLVKDYFPEPVTVSWNSGALTSGVHTFPAVLQSSGLYSLSSVVTVPSSSLGTQTYICNVNHKPSNTKVDKKVEPKSCDKTHTCPPCPAPELLGGPDVFLFPPKPKDTLMISRTPEVTCVVVDVSDEDPEVKFNWYVDGVEVHNAKTKPREEQYNSTYRVVSVLTVLHQDWLNGKEYKCAVSNKAYPAPEEKTISKAKGQPREPQVYTLPPSRDELTKNQVSLTCLVKGFYPSDIAVEWESNGQPENNYKTTPPVLDSDGSFFLYSKLTVDKSRWQQGNVFSCSVMHEALHNHYTQKSLSLSPGK chain 2: DIQMTQSPSSLSASVGDRVTITCRASQDISNYLNWYQQKPDGTVKLLIYSTSRLHSGVPSRFSGSGSGTDYTLTISSLQPEDFATYYCQQGSTLPFTFGQGTKLEIKRTVAAPSVFIFPPSDEQLKSGTASVVCLLNNFYPREAKVQWKVDNALQSGNSQESVTEQDSKDSTYSLSSTLTLSKADYEKHKVYACEVTHQGLSSPVTKSFNRGEC
2550 | 881 |  | X4-KS HM268-K8 (antibody) chain 1: QVQLVQSGPEVKKPGASVKVVCKTSGYTFTSYYIQWLKQRPGQGLEWIGWIYFGDASTKYNEKFKGRVTMTADKSTSTAYMELRSLRSDDTAVYYCASYYGSYFDYWGQGTTVTVSSASTKGPSVFPLAPSSKSTSGGTAALGCLVKDYFPEPVTVSWNSGALTSGVHTFPAVLQSSGLYSLSSVVTVPSSSLGTQTYICNVNHKPSNTKVDKKVEPKSCDKTHTCPPCPAPELLGGPDVFLFPPKPKDTLMISRTPEVTCVVVDVGDEDPEVKFNWYVDGVEVHNAKTKPREEQYNSTYRVVSVLTVLHQDWLNGKEYKCAVSNKAYPAPEEKTISKAKGQPREPQVYTLPPSRDELTKNQVSLTCLVKGFYPSDIAVEWESNGQPENNYKTTPPVLDSDGSFFLYSKLTVDKSRWQQGNVFSCSVMHEALHNHYTQKSLSLSPGK chain 2: DIQMTQSPSSLSASVGDRVTITCRASQDISNYLNWYQQKPDGTVKLLIYSTSRLHSGVPSRFSGSGSGTDYTLTISSLQPEDFATYYCQQGSTLPFTFGQGTKLEIKRTVAAPSVFIFPPSDEQLKSGTASVVCLLNNFYPREAKVQWKVDNALQSGNSQESVTEQDSKDSTYSLSSTLTLSKADYEKHKVYACEVTHQGLSSPVTKSFNRGEC
1220 |  |  | X3-KS-DF HM297-H5 (antibody) chain 1: QVQLVQSGPEVKKPGASVKIPCKASGYTFTDYNVDWVRQVPGQGLEWMGDIDPNNGGTIYNQKFKDRVTMTVDKSTRTAYMELRSLRSDDTAVYYCARWRGAMDYWGQGTLVTVSSASTKGPSVFPLAPSSKSTSGGTAALGCLVKDYFPEPVTVSWNSGALTSGVHTFPAVLQSSGLYSLSSVVTVPSSSLGTQTYICNVNHKPSNTKVDKKVEPKSCDKTHTCPPCPAPELLGGPDVFLFPPKPKDTLMISRTPEVTCVVVDVGDEDPEVKFNWYVDGVEVHNAKTKPREEQYNSTYRVVSVLTVLHQDWLNGKEYKCAVSNKALPAPIEKTISKAKGQPREPQVYTLPPSRDELTKNQVSLTCLVKGFYPSDIAVEWESNGQPENNYKTTPPVLDSDGSFFLYSKLTVDKSRWQQGNVFSCSVMHEALHNHYTQKSLSLSPGK chain 2: DIQMTQSPSSLSASVGDRVTITCRASQDIDNYLKWYQQKPDGTVKLLIYDTSRLHSGVPSRFSGSGSGTDYTLTISSLKQEDFATYYCQQGYTLPWTFGQGTKLEIKRTVAAPSVFIFPPSDEQLKSGTASVVCLLNNFYPREAKVQWKVDNALQSGNSQESVTEQDSKDSTYSLSSTLTLSKADYEKHKVYACEVTHQGLSSPVTKSFNRGEC
